The results in this text go back to patent US20200048348A1.

Assay [1] deals with human CD3 (human) (UniProt P07766). Description: flow cytometry, bispecific antibody on Jurkat cells; antibody concentration not given. In general terms: Flow cytometry measures light scatter and fluorescence of single cells or particles in a stream.
The target is the same in assay [2].
Assay [3] shares this target. Description: Octet, protein binding affinity of the anti-CD3 arm of the bispecific; form of the CD3 protein not stated.

Sequence of human CD3 (human) (P07766 23-207, chain 1 of 2): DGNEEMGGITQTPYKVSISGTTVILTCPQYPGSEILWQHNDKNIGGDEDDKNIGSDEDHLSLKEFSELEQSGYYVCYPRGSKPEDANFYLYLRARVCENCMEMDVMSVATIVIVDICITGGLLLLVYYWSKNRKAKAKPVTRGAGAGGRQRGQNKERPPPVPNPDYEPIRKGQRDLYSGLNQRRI
Sequence of human CD3 (human) (P04234 22-171, chain 2 of 2, further chain): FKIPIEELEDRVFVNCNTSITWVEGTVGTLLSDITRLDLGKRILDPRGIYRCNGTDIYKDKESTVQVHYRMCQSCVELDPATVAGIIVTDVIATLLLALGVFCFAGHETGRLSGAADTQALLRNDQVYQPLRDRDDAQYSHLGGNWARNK

B1: CD3_F2F-BCMA (bispecific antibody, part only; not given: anti-BCMA arm and common light chain, part only)
anti-CD3 heavy chain: EVQLVESGGGLVQPGRSLRLSCAASGFTFHNYAMHWVRQAPGKGLEWVSGISWNSGSIGYADSVKGRFTISRDNAKNSLYLQMNSLRAEDTALYYCAKDSRGYGDYSLGGAYWGQGTLVTVSS
For the molecule B1, the Jurkat cell bind (MFI) with human CD3 (human) [1] worked out at 67 MFI. Further, in the assay with human CD3 (human) [2], the %kill of U266 tumor cells with human pan T-cells at 333 ng/mL bispecific came to 51%; the IFNg released by pan T-cells, bispecific on plate-coated BCMA protein, at 12 ng/mL bispecific turned out to be 333 pg; the IL-2 released by pan T-cells, bispecific on plate-coated BCMA protein, at 37 ng/mL bispecific was found to be 44 pg; the IL-6 released by pan T-cells, bispecific on plate-coated BCMA protein, at 111 ng/mL bispecific was determined as 0.5 pg. Moreover, in the assay with human CD3 (human) [2], the IL-10 released by pan T-cells, bispecific on plate-coated BCMA protein, at 111 ng/mL bispecific worked out at 2.4 pg; the TNFa released by pan T-cells, bispecific on plate-coated BCMA protein, at 12 ng/mL bispecific is 485 pg; the kill EC50: U266 tumor cell lysis with human pan T-cells worked out at 0.0098 mg/L. Further, the Kd in the assay with human CD3 (human) [3] was 0.714 µM.

B2: CD3_F2B-BCMA (bispecific antibody, part only; not given: anti-BCMA arm and common light chain, part only)
anti-CD3 heavy chain: EVQLVESGGGLVQPGRSLRLSCAASGFTFDDYAMHWVRQAPGKGLEWVSGISWNSGSIGYADSVKGRFTISRDNAKNSLYLQMNSLRAEDTALYYCAKDSRGYGDYRLGGAYWGQGTLVTVSS
Regarding B2, the Jurkat cell bind (MFI) with human CD3 (human) [1] was found to be 31 MFI. Also, in the assay with human CD3 (human) [2], the %kill of U266 tumor cells with human pan T-cells at 333 ng/mL bispecific came to 38%; the IFNg released by pan T-cells, bispecific on plate-coated BCMA protein, at 12 ng/mL bispecific turned out to be 154 pg; the IL-2 released by pan T-cells, bispecific on plate-coated BCMA protein, at 37 ng/mL bispecific is 8 pg; the IL-6 released by pan T-cells, bispecific on plate-coated BCMA protein, at 111 ng/mL bispecific came out at 0.5 pg. Moreover, in the assay with human CD3 (human) [2], the IL-10 released by pan T-cells, bispecific on plate-coated BCMA protein, at 111 ng/mL bispecific was determined as 0.6 pg; the TNFa released by pan T-cells, bispecific on plate-coated BCMA protein, at 12 ng/mL bispecific amounted to 553 pg; the kill EC50: U266 tumor cell lysis with human pan T-cells was 0.15 mg/L. The Kd with human CD3 (human) [3] came to 1 µM.

For orientation: Kd means the concentration at which binding is half-saturated. A high value points to a looser complex.
